Reference: patent US20230151091A1 (NEW YORK UNIVERSITY, published 2023)
Substitutions are numbered along the chain they refer to. In names and notes the source's numbering stands. One block for each binder: values may come before it.

How the values were obtained:
[1] = biological target: T1, mFz: Fz domain and C-terminal flanking sequence of mouse MuSK (D307 to T494) with C-terminal Avi- and … (mouse, UniProt Q61006 307-494, limits assumed, biotinylated in vitro using the BirA enzyme); experiment: bead-binding assay, Fab format: biotinylated antigen on streptavidin beads, flow cytometry, 1:1 fit; average ± s.d., n=3
T1 construct: also called mouse Fz; not shown: Avi- and His6-tags
T1 sequence (looked up): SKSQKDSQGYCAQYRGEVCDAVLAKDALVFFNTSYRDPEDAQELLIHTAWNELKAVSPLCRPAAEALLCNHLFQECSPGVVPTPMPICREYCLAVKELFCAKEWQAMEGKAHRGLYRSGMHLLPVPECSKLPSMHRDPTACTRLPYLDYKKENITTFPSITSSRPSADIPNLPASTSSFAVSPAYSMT

mouse MuSK = biological target: T2, mouse MuSK (mouse, UniProt Q61006 22-494, limits assumed); experiment: Biacore, MuSK on chip, association pH 7.4, dissociation pH 5.5
T2 construct: Coated on ELISA plates or on the Biacore chip; also called full length mouse MuSK; mouse MuSK (in house produced in HEK293 cells)
T2 sequence (looked up): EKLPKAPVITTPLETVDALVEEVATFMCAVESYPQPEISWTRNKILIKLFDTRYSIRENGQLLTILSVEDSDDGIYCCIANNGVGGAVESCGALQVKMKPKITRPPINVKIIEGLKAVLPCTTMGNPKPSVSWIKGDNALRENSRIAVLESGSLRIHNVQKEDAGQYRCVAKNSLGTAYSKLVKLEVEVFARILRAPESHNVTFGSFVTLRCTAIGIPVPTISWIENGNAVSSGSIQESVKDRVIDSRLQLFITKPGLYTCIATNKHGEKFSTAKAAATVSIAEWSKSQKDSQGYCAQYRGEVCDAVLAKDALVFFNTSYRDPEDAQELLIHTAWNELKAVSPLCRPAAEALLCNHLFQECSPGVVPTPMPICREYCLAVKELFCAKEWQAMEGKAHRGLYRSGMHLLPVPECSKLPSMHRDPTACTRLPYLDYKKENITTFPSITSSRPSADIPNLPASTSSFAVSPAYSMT
Summary of the method: (§1)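 MuSK was immobilized on the sensor chip at 200 RU, and antibody was injected at 66.7 nM. Association ran at pH 7.4 and dissociation at pH 5.5, and kinetic parameters were calculated from the sensorgrams.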

rat MuSK = biological target: T3, rat MuSK (rat, UniProt Q62838 22-494, limits assumed); experiment: as above
T3 construct: Coated on Biacore chip (200RU) or ELISA plate
T3 sequence (looked up): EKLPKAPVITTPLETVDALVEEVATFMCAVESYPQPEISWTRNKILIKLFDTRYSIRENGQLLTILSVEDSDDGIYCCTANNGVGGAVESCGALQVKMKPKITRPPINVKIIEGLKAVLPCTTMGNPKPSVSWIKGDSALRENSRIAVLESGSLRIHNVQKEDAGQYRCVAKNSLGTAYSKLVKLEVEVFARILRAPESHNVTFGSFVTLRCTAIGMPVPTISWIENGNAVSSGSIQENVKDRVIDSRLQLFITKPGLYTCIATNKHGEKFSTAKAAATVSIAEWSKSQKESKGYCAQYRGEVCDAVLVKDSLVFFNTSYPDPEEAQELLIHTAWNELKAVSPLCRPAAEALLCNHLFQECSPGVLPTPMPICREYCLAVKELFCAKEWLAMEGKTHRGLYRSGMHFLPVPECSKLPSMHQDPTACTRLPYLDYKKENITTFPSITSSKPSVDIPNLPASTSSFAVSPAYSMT
Summary of the method: as §1

cynomolgus monkey MuSK = cynomolgus monkey MuSK (cynomolgus monkey, UniProt A0A2K5USF6 24-487); experiment: as above
Summary of the method: as §1

cynomolgus monkey MuSK, sequence (A0A2K5USF6 entry or part of it): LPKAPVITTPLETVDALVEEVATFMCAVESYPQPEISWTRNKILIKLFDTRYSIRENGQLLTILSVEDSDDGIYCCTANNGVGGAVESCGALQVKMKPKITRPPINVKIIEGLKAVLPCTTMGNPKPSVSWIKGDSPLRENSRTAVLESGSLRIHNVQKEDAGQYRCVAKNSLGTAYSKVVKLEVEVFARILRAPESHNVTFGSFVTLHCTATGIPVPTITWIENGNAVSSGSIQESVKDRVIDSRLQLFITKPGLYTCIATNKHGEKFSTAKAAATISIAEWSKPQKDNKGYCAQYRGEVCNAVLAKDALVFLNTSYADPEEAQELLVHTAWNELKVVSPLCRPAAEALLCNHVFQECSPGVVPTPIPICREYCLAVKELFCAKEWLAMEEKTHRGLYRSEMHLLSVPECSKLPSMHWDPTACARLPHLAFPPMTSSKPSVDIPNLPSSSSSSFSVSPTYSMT

Kd [1]: 0.45 nM
B1: X2 Fab (Fab, V domains shown)
VH: EVQLVESGGGLVQPGGSLRLSCAASGFTVSSSSIHWVRQAPGKGLEWVASISSSYGSTSYADSVKGRFTISADTSKNTAYLQMNSLRAEDTAVYYCARSEGDRYVSGYMGMDYWGQGTLVTVSS
VL: DIQMTQSPSSLSASVGDRVTITCRASQSVSSAVAWYQQKPGKAPKLLIYSASSLYSGVPSRFSGSRSGTDFTLTISSLQPEDFATYYCQQSGVWLITFGQGTKVEIK
notes: Fab format

Kd [1]: 0.29 nM
B2: X3 Fab (Fab, V domains shown)
VH: EVQLVESGGGLVQPGGSLRLSCAASGFTISSSSIHWVRQAPGKGLEWVASISSSSGYTYYADSVKGRFTISADTSKNTAYLQMNSLRAEDTAVYYCARSWYEMWMSGYFGFDYWGQGTLVTVSS
VL: B1 VL with G92S, V93S, W94S
notes: Fab format

R0 (mouse MuSK): 194 RU | koff (mouse MuSK): 0.00296 s⁻¹ | kon (mouse MuSK): 1.05e+06 M⁻¹ s⁻¹ | R0 (rat MuSK): 174 RU | koff (rat MuSK): 0.0062 s⁻¹ | kon (rat MuSK): 980000 M⁻¹ s⁻¹ | R0 (cynomolgus monkey MuSK): 149 RU | koff (cynomolgus monkey MuSK): 0.00317 s⁻¹ | kon (cynomolgus monkey MuSK): 740000 M⁻¹ s⁻¹
B3: 3B2 (antibody, V domains shown)
VH: ELQLVESGGGLVQPGGSLRLSCAASGFTFDDYGMSWVRQAPGKGLEWVSAIPWNGGSTYYKESVKGRFTISRDNAKKTLYLQMNSLKSEDTAVYYCAKRSGRIAFGALDAWGQGTLVTVSS
VL: QAVVTQEPSLSVSPGGTVTLTCGLSSGSVTSSNYPDWYQQTPGQAPRGLIYSTDSRHSGVPSRFSGSISGNKAALTITGAQSEDEADYYCGLYMYSGSKNYVFGGGTKLTVL
notes: human IgG1 with the LALA mutations (L234A, L235A); produced in HEK293 cells; also called 3B2 mAb; parental 3B2 Ab
